Test results as given in PMC2790157.

B1: NF-kB consensus (dsDNA)
DNA 1: AGTTGAGGGGACTTTCCCAGGC
DNA 2: GCCTGGGAAAGTCCCCTCAACT
B2: ING2 promoter putative NF-kB site (dsDNA)
DNA 1: CGCCGAGGGGATCCCCACTGCT
DNA 2: AGCAGTGGGGATCCCCTCGGCG

Target: NF-kB p50 (UniProt P19838 1-433)
Test: EMSA

Chain of NF-kB p50 (P19838 1-433): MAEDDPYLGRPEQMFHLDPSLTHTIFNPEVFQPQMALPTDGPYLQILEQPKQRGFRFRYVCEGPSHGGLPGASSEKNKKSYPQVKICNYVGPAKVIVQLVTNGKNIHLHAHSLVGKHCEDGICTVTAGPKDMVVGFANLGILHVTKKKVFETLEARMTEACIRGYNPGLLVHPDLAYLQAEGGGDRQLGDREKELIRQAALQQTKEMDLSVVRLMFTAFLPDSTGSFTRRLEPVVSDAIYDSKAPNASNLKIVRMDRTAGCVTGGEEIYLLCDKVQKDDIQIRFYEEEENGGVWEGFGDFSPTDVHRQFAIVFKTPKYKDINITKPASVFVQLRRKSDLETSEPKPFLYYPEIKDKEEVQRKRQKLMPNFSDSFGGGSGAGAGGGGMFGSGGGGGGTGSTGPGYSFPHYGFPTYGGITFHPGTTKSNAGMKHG

Row | Binder | binding result
1 | B1 | binds
2 | B2 | binds
